Data: patent US20090291890A1 (published 2009)
Several values for one entry are separate records, joined by “and”; a condition that tells them apart may be missing. Equal entries are not always repeated.

Columns and labels:
wild-type FVIIa (human) [1] = target: wild-type FVIIa (human)
wild-type FVIIa (human) [2] = target: wild-type FVIIa (human); remark: listed apart in the source
[3] = target: A122N/G124S-FVIIa (human)
[4] = target: A122N/G124S/A175S/S222A-FVIIa (human)
[5] = target: Gla swap FIX/S222A/Q286R/H373F-FVIIa (human)
[6] = target: Gla swap FIX/S222A/Q286R/M298Q/H373F-FVIIa (human)
[7] = target: Gla swap FIX/T128N/P129A/A175S/S222A/Q286R-FVIIa (human)
[8] = target: Gla swap FIX/T239V/Q286R/M298Q-FVIIa (human)
[9] = target: H257A/Q286R-FVIIa (human)
[10] = target: Q286R/M298Q/Q366N-FVIIa (human)
[11] = target: S222A/H257A/Q286R-FVIIa (human)
[12] = target: S222A/Q286R/M298Q-FVIIa (human)
[13] = target: S222A/T239V-FVIIa (human)
[14] = target: S222A/T239V/H257A/Q286R/M298Q-FVIIa (human)
[15] = target: T128N/P129A-FVIIa (human)
[16] = target: T128N/P129A/A175S-FVIIa (human)
[17] = target: T128N/P129A/A175S/Q286R/M298Q-FVIIa (human)
[18] = target: T128N/P129A/A175S/Q366V-FVIIa (human)
[19] = target: T128N/P129A/A175S/S222A-FVIIa (human)
[20] = target: T128N/P129A/A175S/S222A/H257A/Q286R/M298Q-FVIIa (human)
[21] = target: T128N/P129A/Q286R/M298Q-FVIIa (human)
[22] = target: T128N/P129A/Q286R/M298Q/Q366N-FVIIa (human)
[23] = target: T128N/P129A/Q286R/M298Q/Q366N/H373F-FVIIa (human)
[24] = target: T128N/P129A/S222A/H257A/Q286R/M298Q-FVIIa (human)
[25] = target: T128N/P129A/S222A/T239V/H257A/Q286R/M298Q-FVIIa (human)
[26] = target: T128N/P129A/T239V/Q286R/M298Q-FVIIa (human)
[27] = target: T128N/P129A/V158D/E296V/M298Q-FVIIa (human)
[28] = target: T239I/Q286R/M298Q-FVIIa (human)
[29] = target: T239I/Q286R/M298Q/Q366N-FVIIa (human)
[30] = target: T239V/M298Q/H373F-FVIIa (human)
[31] = target: T239V/Q286R/M298Q/Q366N-FVIIa (human)
[32] = target: {Gla swap FIX/K43I}/T128N/P129A/Q286R/M298Q/Q366N-FVIIa (human)

Chain of antithrombin III (P01008 33-464): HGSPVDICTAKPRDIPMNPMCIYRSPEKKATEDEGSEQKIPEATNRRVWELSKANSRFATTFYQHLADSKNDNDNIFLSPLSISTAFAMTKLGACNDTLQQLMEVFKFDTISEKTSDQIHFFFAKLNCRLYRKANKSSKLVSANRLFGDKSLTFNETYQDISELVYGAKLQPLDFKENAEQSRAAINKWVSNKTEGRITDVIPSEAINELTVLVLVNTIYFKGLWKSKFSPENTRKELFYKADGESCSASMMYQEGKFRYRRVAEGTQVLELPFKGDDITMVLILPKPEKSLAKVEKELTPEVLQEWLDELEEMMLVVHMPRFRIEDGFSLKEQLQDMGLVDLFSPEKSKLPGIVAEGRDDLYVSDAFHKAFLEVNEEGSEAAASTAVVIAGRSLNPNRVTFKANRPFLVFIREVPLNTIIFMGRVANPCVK

K0.5, TF-dependent, FVIIa from 293-F cells (wild-type FVIIa (human) [1]): 72.3 nM | K0.5, TF-dependent, FVIIa from BHK-21 cells (wild-type FVIIa (human) [1]): 56 nM | K0.5 mut/K0.5 wt, TF-dependent, 293-F cells (wild-type FVIIa (human) [1]): 1 | K0.5 mut/K0.5 wt, TF-dependent, BHK-21 cells (wild-type FVIIa (human) [1]): 1 | K0.5, TF-independent, FVIIa from 293-F cells (wild-type FVIIa (human) [2]): 2260 nM | K0.5 mut/K0.5 wt, TF-independent, 293-F cells (wild-type FVIIa (human) [2]): 1 | K0.5 mut/K0.5 wt, TF-independent, BHK-21 cells (wild-type FVIIa (human) [2]): 1 | K0.5 [3]: 372 nM | K0.5 [4]: 1550 nM | K0.5 (A175S-FVIIa (human)): 1330 nM | K0.5 [5]: 587 nM | K0.5 [6]: 164 nM | K0.5 [7]: 6.49 µM | K0.5 [8]: 484 nM and 314 nM | K0.5 [9]: 2800 nM | K0.5 [10]: 324 nM | K0.5 (S222A-FVIIa (human)): 384 nM | K0.5 [11]: 2590 nM | K0.5 [12]: 308 nM | K0.5 [13]: 967 nM | K0.5 [14]: 469 nM | K0.5 [15]: 465 nM | K0.5 [16]: 1390 nM | K0.5 [17]: 2310 nM | K0.5 [18]: 333 nM | K0.5 [19]: 1910 nM | K0.5 [20]: 3.21 µM | K0.5 [21]: 284 nM | K0.5 [22]: 346 nM | K0.5 [23]: 148 nM | K0.5 [24]: 653 nM and 328 nM | K0.5 [25]: 326 nM | K0.5 [26]: 266 nM | K0.5 [27]: 81.6 nM | K0.5 [28]: 1610 nM | K0.5 [29]: 813 nM | K0.5 [30]: 46.6 nM | K0.5 [31]: 252 nM | K0.5 [32]: 319 nM
Substance: antithrombin III
